Assay results taken from patent publication US20260327294 (published 2026).
Read-outs that look alike come from different tables or passages of the source.

Columns and labels:
RSV A2 pre-F [1] = target: RSV A2 pre-F (RSV A2); test: ELISA
RSV A2 pre-F [2] = target: RSV A2 pre-F (RSV A2); test: BLI
RSV A2 pre-F [3] = target: RSV A2 pre-F (RSV A2); test: ELISA; remark: listed apart in the source
RSV A2 pre-F [4] = target: RSV A2 pre-F (RSV A2); test: BLI; remark: listed apart in the source

B1: F6-63 (antibody, V domains shown)
VH: QVQVVESGGGVVEPGGSLSLSCAASGFSFKMHAMHWVRQAPGKGLEWVAFIPYDGSSQYYADSVKGRFTIYRDNFKNTLYLQMNSLRVEDTSLYYCARGGEEGAWSWIGYNSYMDVWGRGTAVTVSS
VL: QSALTQPASVSGSPGQSITISCSGTSSDVGGYDYVCWYQKHPGESPRLIIYDVSRRPSGVSNRFSGSKSGNTASLTISGLQAEDEADYSCSSYTSSNTLIFGGGTKLTVL
EC50 (RSV A2 pre-F [1]): 0.0161 µg/mL
Kd (RSV A2 pre-F [2]): 0.783 nM

B2: F6-124 (antibody, V domains shown)
VH: QVQLVQSGTEVKKPGASVKISCKASGYTFTGNAINWVRQAPGQGLEWLGWISVNNGNTKYVQKFQGRVTMTTDTSTSTAYMELRSLGSDDTAVYYCAREVVNYGSGSLNFDSWGQGTLVTVSS
VL: SYELTQPPSVSVSPGQTVSISCSGDKLGNDYVSWYQQKPGQSPVLVIYEDSKRPSGIPERFSGSNSGNTATLTISGTQAMDESDYYCQAWDGSTVIFGGGTKLTVL
EC50 (RSV A2 pre-F [3]): 0.0147 µg/mL
Kd (RSV A2 pre-F [4]): < 0.001 nM

B3: F6-115 (antibody, V domains shown)
VH: QLQLHQRGAGLLKPSETLSLTCDVYGGSVSDDEWTWIRQSPGKGLEWIGQIDRTGSSNYNPSLRSRVTISPDTSNNQFSMSLTSVTAADTALYFCARGGLVVTDVGRGWDAFDVWGQGTMVTVSS
VL: DIQMTQSPSSVSASVGDRITITCRASQHINNWLAWYQQKPGEAPKLLIYAASTLQRGVPSRFSGSGSGTRFTLTITSLQPEDFASYFCQQGDSFPLTFGGGTKVEIK
EC50 (RSV A2 pre-F [3]): 0.0117 µg/mL
Kd (RSV A2 pre-F [4]): < 0.001 nM

B4: F6-38 (antibody, V domains shown)
VH: QVQLEESGGGVVQPGRSLTLSCAASGFTLKNYAIHWVRQAPGKGLEWVAVTAYDGFTSYYADSVKSRITISRDNSKNTAYLHLNNVRDDDAAFYYCARGGEGAFSWLGYLQYMDVWGRGTTVAVSS
VL: QSTLTQPASASGSPGQSITISCTGTSNDIGSYTYVSWYQHHPGKAPKLMIYDVNERPSGISHRFSGSKSGNTASLTISGLQPEDEADYYCNSYTINNTLKFGGGTRLTVL
EC50 (RSV A2 pre-F [1]): 0.00712 µg/mL
Kd (RSV A2 pre-F [2]): 1.38 nM

B5: F6-208 (antibody, V domains shown)
VH: QVQLEESGGGVVQPGTSLRLSCSSSGVTRNTYAVHWVRQVPGKGLEWLAATSYDGTSKYYPENGHGRVSISKEYSTNMVYLEIYNLRPEDTAVYFCAKGPQGIYSYIGYFYYMDVWGKGTTVTVSS
VL: QSALTQPASVSGSPGQSITLSCTGSRDDVGDYDYVSWYQHHPGKAPRLIIYDVTSRPSGVSPRFSGSKSGNTASLTISGLQADDEADYYCNSYTSSNSVVFGGGTKVTVL
EC50 (RSV A2 pre-F [3]): 0.0198 µg/mL
Kd (RSV A2 pre-F [4]): 0.0533 nM

B6: F6-88 (antibody, V domains shown)
VH: QVQLVQSGAEVKKPGASVRVSCGASGNSFTRHGFSWVRQAPGQGLEWIGLISAHKSNTIYAQKFQGRVTVTTDTSTSTAYMELRSLRSDDTAVYYCVRDVTVVTDVGSGYDFPMDVWGQGTTVTVSS
VL: QSVLTQSPSASGTPGQRVTISCSGSNSNIGGDYVHWYQQVPGTAPRLLIYNTNQRPSGVPDRFSGSKSGTSGSLAISGLRSEDEADYYCATWDDSLNGWVFGGGTKLTVL
EC50 (RSV A2 pre-F [1]): 0.0169 µg/mL
Kd (RSV A2 pre-F [2]): 0.86 nM

B7: F6-70 (antibody, V domains shown)
VH: QVQLVESGGGVVQPGRSLRLSCAASGFTFKNFAMHWVRQAPGKGLEWVAAVSYDGTSKYQADSVKGRFTISRDNSKNTLYLQMNSLRAEDTAVYYCARVESSGSGHYSYLGYFYCMDVWGKGTTVTVSS
VL: QSALTQPASVSASPGQSITISCTGTRNDVGGYEYVSWYQQHPDKAPKLMIFDVSNRPSGVSNRFSGSKSGNTASLTISGLQAEDEADYYCSSYTINNTLVFGGGTKVTVL
EC50 (RSV A2 pre-F [3]): 0.0585 µg/mL
Kd (RSV A2 pre-F [4]): 2.11 nM

B8: F6-210 (antibody, V domains shown)
VH: QERLAQSGTEVKKPGASVKVSCRALGYTFSDYSIHWVRQAPRQGLEWMGKINTSGGTTTYAQKFQARVTLTSDTSTSTASMELSSLKIEDTAVYYCVAYERATTLAGAGASDIWGQGTLVTVSS
VL: DIVMTQSPLSLPVTPGEPASISCRSSQSLLHSDGYNYLDWYLQKPGQSPHLLIYLGSNRASGVPDRFSGSGSGTDFTLKITRVEPEDVGVYYCMQSLQTPFTFGPGTKVDVK
EC50 (RSV A2 pre-F [3]): 0.0281 µg/mL
Kd (RSV A2 pre-F [4]): 0.106 nM

B9: F6-61 (antibody, V domains shown)
VH: QVTLRQSGPALVKPTQTLTLTCTFSGFSLSTRGMCVNWIRQPPGKALEWLARIDWDDDKYYTTSLKTRLTISKDTAKNHVVLSMTNMDPVDTATYYCARIRCYDYVWGDDEVFDIWGQGTMVSVSS
VL: QSVLTQPPSASGTPGQSVTISCSGSTSNIGSNNVNWYQQLPGAAPKLVIHTNDQRPSRVPDRFSGSTSGTSASLAISGLQSEDEADYYCAAWDDSLNGLLFGGGTKLTVL
EC50 (RSV A2 pre-F [3]): 0.0613 µg/mL
Kd (RSV A2 pre-F [4]): 3.25 nM

B10: F6-27 (antibody, V domains shown)
VH: QEQLMESGGDVVRPGTSLTLSCKASGFAFRSHALHWVRQAPGKGLEWVSVISYDGGHTNSADSLEGRFTVSRDNSKNILYLQMNSLRTEDTAVYFCARSEGSYRSWPGYFYYMDVWGNGTTVTVSS
VL: QSALTQPASVSGSPGQSITISCIGTSSDVGGYYYVSWYQQHPGRAPKLIIFDVTDRPSGVSSRFSGSQSGNTASLTISGLQPEDEADYYCNSYSSSTIPYVFGSGTKVTVL
EC50 (RSV A2 pre-F [1]): 0.00987 µg/mL
Kd (RSV A2 pre-F [2]): 0.671 nM

B11: F6-227 (antibody, V domains shown)
VH: QVQLQQSGPGLVKPSETLSLACSVSGGSMSDFYWSWIRQSPGTGLEWIGYVHHSGKVNYNPSLKARVTMSLDTSKYLLSLNLASMTAADSAVYYCAATSAFVDSSSYSPPYFDFWGQGTLITVSS
VL: DIQLTQSPSSLSASVGDRVTITCQASHDITNYLNWYQQTPGKAPRLLIYVATNLETGVPSRFSGSGSGTHFTLTISSLQPEDSATYYCQQYDNLPITFGGGTRVEIR
EC50 (RSV A2 pre-F [3]): 0.0226 µg/mL
Kd (RSV A2 pre-F [4]): 0.169 nM

B12: F6-153 (antibody, V domains shown)
VH: QVQLQQWGAGLLRPSETLSLTCAVSGVSLSGDYLTWIRQTPGKGLEWIGEINHSGSTNYNPSLKSRVTISVETSKNHFSLKMRSVTAADSALYYCARGWEYCHGTTCYSKAFDIWGQGTLVTVSS
VL: DIQMTQSPSSLSASVGDRVTITCQASQDISNYLIWYQQKPGRAPKLLIFDASKLEKGVPPRFSGSGSGTYFTFTISSLQPEDFATYYCQQFHNLPVTFGGGTKLETK
EC50 (RSV A2 pre-F [3]): 0.018 µg/mL
Kd (RSV A2 pre-F [4]): < 0.001 nM

B13: F6-132 (antibody, V domains shown)
VH: QEQSVQSGAEVKKPGASVKVSCRASEFTFSTDFIHWVRQAPGQGLEWMGRITPSDGTTTYAQKFQGRVTMTRDPSTNTVYIELRRLKSEDTAVYYCVAYDRVTTSAGTGASDIWGQGTMVTVSS
VL: DIVMTQSPLSLPVTPGEPASISCRSSQSLLHGDGYNYLDWYLQKPGRSPQLLIYLGSHRASGVPDRFSGSGSGTDFTLRISRVEAEDVGIYYCMQGLQTPFTFGPGTKVDIK
EC50 (RSV A2 pre-F [3]): 0.0167 µg/mL
Kd (RSV A2 pre-F [4]): < 0.001 nM

B14: F6-215 (antibody, V domains shown)
VH: QEQSVQSGPEVKKPGASVKVSCRASEFTFSTDFIHWVRQAPGQGLEWMGRITPSDGTTTYAPKFQGRVAVTRDPSTKNVYIQLTRLKSEDTAVYYCVAYDRATTSAGAGATDIWGQGTLVTVSS
VL: DIVMTQSPLSLPVTPGEPASISCRSSQSLLHGDGYNYLDWYLQRPGRSPQLLIYLGSHRASGVPDRFSGSGSGTDFTLRISRVEAEDVGIYYCMQGLQTPFTFGPGTKVDIK
EC50 (RSV A2 pre-F [3]): 0.0289 µg/mL
Kd (RSV A2 pre-F [4]): 0.815 nM

B15: F6-141 (antibody, V domains shown)
VH: QVQLAQSGAEVRRPGTSVKVSCRSSAYDFIDDSIHWVRQAPGQGLEWMGRIDPSGDTTTYAPQFQVRITLTRDTSTSTASMELNRLTSQDTAMYYCVAYERATTLAGVGASDVWGQGTWVTVSS
VL: DIVMTQSPLSLSVTPGEPASISCRSSQSLLYRDGYNYLDWYLQKPGQSPQLLLYFASYRASGVPDRFSGSGSGTDFTLTITRVEPEDVGIYYCMQSLQTPFTFGPGTKLDFK
EC50 (RSV A2 pre-F [3]): 0.0166 µg/mL
Kd (RSV A2 pre-F [4]): < 0.001 nM

B16: F6-65 (antibody, V domains shown)
VH: QVQLVESGGGLVQPGDSLRLSCAASGFTFKSYGLHWVRQAPGKGLEWVAGLSYDGFSGYYADSVKGRFTVSRDNSKNTLYLHINSLRSEDTSIYYCARGGDGEIFSWIGYFYYMDVWGKGTTVTVFS
VL: QSALTQPASVSGSPGQSITISCSGTTNDVGGYDYVSWYQHHPGKAPKLLIYDVSQRPSGVSSRFSGSKSGNTASLTISGLQTDDEAHYYCSSYTITNTLKFGGGTTLTVL
EC50 (RSV A2 pre-F [1]): 0.00998 µg/mL
Kd (RSV A2 pre-F [2]): 0.96 nM

B17: F6-133 (antibody, V domains shown)
VH: EVQVVESGGGLVQPGGSLRLSCAASSFSVTGSYMTWVRQAPGKGLESVSLIYSTGSTYYADSVKGRFVISRDDSKNILFLQMNNLRVEDTGVYFCARLGPAGGSWSWEFYGLDVWGQGTTVTVFS
VL: CVQMTQSPSFLSASVGDRVTISCRASQGTTSYLAWYQQKPGKAPKLLIYGVSTLQTGVPSRFSGSGSGTDFTLTISNLQPEDFATYYCQQVNIFPYTFGPGTKVEIK
EC50 (RSV A2 pre-F [3]): 0.0494 µg/mL
Kd (RSV A2 pre-F [4]): 0.0669 nM

B18: F6-213 (antibody, V domains shown)
VH: QEQLVQSGAEVKRPGTSVKVSCKASGYAFTDYSIHWVRQAPGVGLEWMGKIYPGDGHALYAQNFQGRVTLTRDTSTASVYMELRSLRSQDTAVYYCVAYERATTLAGAGASDIWGQGTMVTVSS
VL: DIVMTQSPLSLPVTPGEPASISCRSSQSLLQSDGYNYMDWYLQKPGRSPQLLIYLGSHRASGVPDRFSGSGSGTDFTLRISRVKAEDVGIYYCMQSLQSPFTFGPGTKVDIK
EC50 (RSV A2 pre-F [3]): 0.0298 µg/mL
Kd (RSV A2 pre-F [4]): 1.29 nM

B19: F6-207 (antibody, V domains shown)
VH: QITLKESGPTLLKPTQTLTLTCTFSGFSLTTTGVAVGWVRQPPGKALEWLALIYWDDDKRYSPSLKSRVTITKDTSKNQVLLAMTDMDPVDTATYYCAHFDYGDPEVVALFEYSYYMDVWGKGITVTVSS
VL: QSVLTQPPSVSGTPGQRVTISCSGSSSNIGSNYVYWYQHLPGTAPKLLIYTNNRRPSGVPDRFSGSKSGTSASLAVSGLRSEDEADYFCAVWDDSVGGHWVFGGGTKLTVL
EC50 (RSV A2 pre-F [3]): 0.0354 µg/mL
Kd (RSV A2 pre-F [4]): 0.291 nM

B20: F6-172 (antibody, V domains shown)
VH: EEQLVESGGGLVQPGGSLKLSCAASGFILSDSTVHWVRQASGRGLEWVGRIANGYATSYAASVKGRFTISTDDSGNTAYLEMNSLKTEDTAVYYCTSRSVVVTDVGAGRDDYWGQGTLVTVSS
VL: DIVMTQSPLSLPVTPGEPASISCRSSQSLLHRNGYNYLDWYLQKPGQSPQLLIWLGSNRASGVPDRFSGSGSGTDFTLTISRVEAEDVGVYYCMQDLQTPPTFGGGTKVEIM
EC50 (RSV A2 pre-F [3]): 0.0183 µg/mL
Kd (RSV A2 pre-F [4]): < 0.001 nM
